Laboratory results as given in paper PMC12416549 (2024).

T1: TNFR1 (Homo sapiens, UniProt P19438)
T1 chain: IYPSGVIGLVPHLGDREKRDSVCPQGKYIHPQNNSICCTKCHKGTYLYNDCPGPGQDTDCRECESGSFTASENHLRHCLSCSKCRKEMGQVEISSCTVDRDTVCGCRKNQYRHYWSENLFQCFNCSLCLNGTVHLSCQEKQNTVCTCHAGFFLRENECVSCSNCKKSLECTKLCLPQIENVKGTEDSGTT


Target: T1, TNFR1
Assay: yeast display SC50

| Binder | apparent Kd (screen) |
| --- | --- |
| S1W (designed binder) WMEEEVEKAAKEYEKKKKEAIEKHLEKLKAKDKEAAERFLKELEEAAKEYAKDEAKTMSEEEAKRRAKKYKEKVLLSELSEEEQKEIKEAEEKLVRTILKYVEEAAK | 3.63 nM |
| A9C (designed binder) SMEEEVEKCAKEYEKKKKEAIEKHLEKLKAKDKEAAERFLKELEEAAKEYAKDEAKTMSEEEAKRRAKKYKEKVLLSELSEEEQKEIKEAEEKLVRTILKYVEEAAK | 0.446 nM |
| A20P (designed binder) SMEEEVEKAAKEYEKKKKEPIEKHLEKLKAKDKEAAERFLKELEEAAKEYAKDEAKTMSEEEAKRRAKKYKEKVLLSELSEEEQKEIKEAEEKLVRTILKYVEEAAK | 3.63 nM |
| K15E (designed binder) SMEEEVEKAAKEYEEKKKEAIEKHLEKLKAKDKEAAERFLKELEEAAKEYAKDEAKTMSEEEAKRRAKKYKEKVLLSELSEEEQKEIKEAEEKLVRTILKYVEEAAK | 0.869 nM |
| K16G (designed binder) SMEEEVEKAAKEYEKGKKEAIEKHLEKLKAKDKEAAERFLKELEEAAKEYAKDEAKTMSEEEAKRRAKKYKEKVLLSELSEEEQKEIKEAEEKLVRTILKYVEEAAK | 0.49 nM |
| K16C (designed binder) SMEEEVEKAAKEYEKCKKEAIEKHLEKLKAKDKEAAERFLKELEEAAKEYAKDEAKTMSEEEAKRRAKKYKEKVLLSELSEEEQKEIKEAEEKLVRTILKYVEEAAK | 1.05 nM |
| A30Y (designed binder) SMEEEVEKAAKEYEKKKKEAIEKHLEKLKYKDKEAAERFLKELEEAAKEYAKDEAKTMSEEEAKRRAKKYKEKVLLSELSEEEQKEIKEAEEKLVRTILKYVEEAAK | 0.446 nM |
| L28C (designed binder) SMEEEVEKAAKEYEKKKKEAIEKHLEKCKAKDKEAAERFLKELEEAAKEYAKDEAKTMSEEEAKRRAKKYKEKVLLSELSEEEQKEIKEAEEKLVRTILKYVEEAAK | 0.49 nM |
| V6G (designed binder) SMEEEGEKAAKEYEKKKKEAIEKHLEKLKAKDKEAAERFLKELEEAAKEYAKDEAKTMSEEEAKRRAKKYKEKVLLSELSEEEQKEIKEAEEKLVRTILKYVEEAAK | 2.48 nM |
| E42C (designed binder) SMEEEVEKAAKEYEKKKKEAIEKHLEKLKAKDKEAAERFLKCLEEAAKEYAKDEAKTMSEEEAKRRAKKYKEKVLLSELSEEEQKEIKEAEEKLVRTILKYVEEAAK | 22.2 nM |
| A36K (designed binder) SMEEEVEKAAKEYEKKKKEAIEKHLEKLKAKDKEAKERFLKELEEAAKEYAKDEAKTMSEEEAKRRAKKYKEKVLLSELSEEEQKEIKEAEEKLVRTILKYVEEAAK | 0.49 nM |
| E37C (designed binder) SMEEEVEKAAKEYEKKKKEAIEKHLEKLKAKDKEAACRFLKELEEAAKEYAKDEAKTMSEEEAKRRAKKYKEKVLLSELSEEEQKEIKEAEEKLVRTILKYVEEAAK | 0.49 nM |
| L25D (designed binder) SMEEEVEKAAKEYEKKKKEAIEKHDEKLKAKDKEAAERFLKELEEAAKEYAKDEAKTMSEEEAKRRAKKYKEKVLLSELSEEEQKEIKEAEEKLVRTILKYVEEAAK | 2.73 nM |
| A35G (designed binder) SMEEEVEKAAKEYEKKKKEAIEKHLEKLKAKDKEGAERFLKELEEAAKEYAKDEAKTMSEEEAKRRAKKYKEKVLLSELSEEEQKEIKEAEEKLVRTILKYVEEAAK | 1.16 nM |
| K29F (designed binder) SMEEEVEKAAKEYEKKKKEAIEKHLEKLFAKDKEAAERFLKELEEAAKEYAKDEAKTMSEEEAKRRAKKYKEKVLLSELSEEEQKEIKEAEEKLVRTILKYVEEAAK | 1.05 nM |
| V6Q (designed binder) SMEEEQEKAAKEYEKKKKEAIEKHLEKLKAKDKEAAERFLKELEEAAKEYAKDEAKTMSEEEAKRRAKKYKEKVLLSELSEEEQKEIKEAEEKLVRTILKYVEEAAK | 6.43 nM |
| K33L (designed binder) SMEEEVEKAAKEYEKKKKEAIEKHLEKLKAKDLEAAERFLKELEEAAKEYAKDEAKTMSEEEAKRRAKKYKEKVLLSELSEEEQKEIKEAEEKLVRTILKYVEEAAK | 0.653 nM |

Next, values leading:

| apparent Kd (screen) | Binder |
| --- | --- |
| 13.8 nM | V95W (designed binder) SMEEEVEKAAKEYEKKKKEAIEKHLEKLKAKDKEAAERFLKELEEAAKEYAKDEAKTMSEEEAKRRAKKYKEKVLLSELSEEEQKEIKEAEEKLWRTILKYVEEAAK |
| 3 nM | V102L (designed binder) SMEEEVEKAAKEYEKKKKEAIEKHLEKLKAKDKEAAERFLKELEEAAKEYAKDEAKTMSEEEAKRRAKKYKEKVLLSELSEEEQKEIKEAEEKLVRTILKYLEEAAK |
| 1.69 nM | L75K (designed binder) SMEEEVEKAAKEYEKKKKEAIEKHLEKLKAKDKEAAERFLKELEEAAKEYAKDEAKTMSEEEAKRRAKKYKEKVKLSELSEEEQKEIKEAEEKLVRTILKYVEEAAK |
| 0.49 nM | A51M (designed binder) SMEEEVEKAAKEYEKKKKEAIEKHLEKLKAKDKEAAERFLKELEEAAKEYMKDEAKTMSEEEAKRRAKKYKEKVLLSELSEEEQKEIKEAEEKLVRTILKYVEEAAK |
| 9.41 nM | L99F (designed binder) SMEEEVEKAAKEYEKKKKEAIEKHLEKLKAKDKEAAERFLKELEEAAKEYAKDEAKTMSEEEAKRRAKKYKEKVLLSELSEEEQKEIKEAEEKLVRTIFKYVEEAAK |
| 1.27 nM | L79V (designed binder) SMEEEVEKAAKEYEKKKKEAIEKHLEKLKAKDKEAAERFLKELEEAAKEYAKDEAKTMSEEEAKRRAKKYKEKVLLSEVSEEEQKEIKEAEEKLVRTILKYVEEAAK |
| 16.7 nM | M58K (designed binder) SMEEEVEKAAKEYEKKKKEAIEKHLEKLKAKDKEAAERFLKELEEAAKEYAKDEAKTKSEEEAKRRAKKYKEKVLLSELSEEEQKEIKEAEEKLVRTILKYVEEAAK |
| 1.27 nM | R65A (designed binder) SMEEEVEKAAKEYEKKKKEAIEKHLEKLKAKDKEAAERFLKELEEAAKEYAKDEAKTMSEEEAKARAKKYKEKVLLSELSEEEQKEIKEAEEKLVRTILKYVEEAAK |
| 6.43 nM | V74H (designed binder) SMEEEVEKAAKEYEKKKKEAIEKHLEKLKAKDKEAAERFLKELEEAAKEYAKDEAKTMSEEEAKRRAKKYKEKHLLSELSEEEQKEIKEAEEKLVRTILKYVEEAAK |
| 1.4 nM | A63Q (designed binder) SMEEEVEKAAKEYEKKKKEAIEKHLEKLKAKDKEAAERFLKELEEAAKEYAKDEAKTMSEEEQKRRAKKYKEKVLLSELSEEEQKEIKEAEEKLVRTILKYVEEAAK |
| 0.869 nM | E83S (designed binder) SMEEEVEKAAKEYEKKKKEAIEKHLEKLKAKDKEAAERFLKELEEAAKEYAKDEAKTMSEEEAKRRAKKYKEKVLLSELSEESQKEIKEAEEKLVRTILKYVEEAAK |
| 0.49 nM | V74L (designed binder) SMEEEVEKAAKEYEKKKKEAIEKHLEKLKAKDKEAAERFLKELEEAAKEYAKDEAKTMSEEEAKRRAKKYKEKLLLSELSEEEQKEIKEAEEKLVRTILKYVEEAAK |
| 11.4 nM | V95C (designed binder) SMEEEVEKAAKEYEKKKKEAIEKHLEKLKAKDKEAAERFLKELEEAAKEYAKDEAKTMSEEEAKRRAKKYKEKVLLSELSEEEQKEIKEAEEKLCRTILKYVEEAAK |
| 0.0802 nM | Y50V (designed binder) SMEEEVEKAAKEYEKKKKEAIEKHLEKLKAKDKEAAERFLKELEEAAKEVAKDEAKTMSEEEAKRRAKKYKEKVLLSELSEEEQKEIKEAEEKLVRTILKYVEEAAK |
| 0.405 nM | Y101L (designed binder) SMEEEVEKAAKEYEKKKKEAIEKHLEKLKAKDKEAAERFLKELEEAAKEYAKDEAKTMSEEEAKRRAKKYKEKVLLSELSEEEQKEIKEAEEKLVRTILKLVEEAAK |
| 1.86 nM | L94M (designed binder) SMEEEVEKAAKEYEKKKKEAIEKHLEKLKAKDKEAAERFLKELEEAAKEYAKDEAKTMSEEEAKRRAKKYKEKVLLSELSEEEQKEIKEAEEKMVRTILKYVEEAAK |
| 5.84 nM | E42H (designed binder) SMEEEVEKAAKEYEKKKKEAIEKHLEKLKAKDKEAAERFLKHLEEAAKEYAKDEAKTMSEEEAKRRAKKYKEKVLLSELSEEEQKEIKEAEEKLVRTILKYVEEAAK |
| 0.446 nM | E104R (designed binder) SMEEEVEKAAKEYEKKKKEAIEKHLEKLKAKDKEAAERFLKELEEAAKEYAKDEAKTMSEEEAKRRAKKYKEKVLLSELSEEEQKEIKEAEEKLVRTILKYVERAAK |
